Reference: patent publication US20220073586A1

Biological target: PD-L1 antigen (coated on 96-well immunoplate) (UniProt Q9NZQ7)
Assay: single antigen ELISA, PD-L1 coated at 1 ug/mL, detection with anti-hFc-HRP

Sequence of PD-L1 antigen (coated on 96-well immunoplate) (Q9NZQ7 19-238 limits assumed): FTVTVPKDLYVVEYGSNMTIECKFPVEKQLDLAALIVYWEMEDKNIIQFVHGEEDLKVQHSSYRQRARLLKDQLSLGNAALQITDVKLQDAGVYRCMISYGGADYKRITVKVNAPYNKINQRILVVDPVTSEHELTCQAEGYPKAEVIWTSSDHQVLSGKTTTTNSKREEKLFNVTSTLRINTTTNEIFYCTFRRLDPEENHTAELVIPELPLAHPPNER

Tecentriq (Genetech, atezolizumab, anti-PD-L1 antibody)
EC50 (read off the curve): 0.03 mg/L
